Assay results taken from patent US8574569B2, “Stabilized protease composition” (Trobio AB, priority 2005, dated 2013).

T1: trypsin (Bos taurus, UniProt P00760)
T1 construct: 100 μg/ml of trypsin (TPCK-treated, Sigma-Aldrich); purchased Sigma-Aldrich
T1 sequence (P00760 24-246): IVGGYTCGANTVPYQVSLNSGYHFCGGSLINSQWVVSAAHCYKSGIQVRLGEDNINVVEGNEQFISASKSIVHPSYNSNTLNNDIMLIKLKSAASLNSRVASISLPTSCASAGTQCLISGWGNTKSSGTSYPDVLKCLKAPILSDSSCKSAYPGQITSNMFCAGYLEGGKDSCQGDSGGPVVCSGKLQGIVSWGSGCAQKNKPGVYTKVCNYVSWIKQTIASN


Assays:
plasmin = biological target: T2, plasmin (Homo sapiens, UniProt P00747); experiment: Stability of plasmin solutions (Chromozym TH chromogenic substrate, T 70%); assay type: physicochemical; conditions: 100 μg/ml plasmin in 10 mM HEPES, 0.13 M NaCl, pH 7.4, 37° C.
T2 construct: 100 μg/ml of plasmin (specific activity 3.2 units/mg, Sigma-Aldrich); purchased Sigma-Aldrich
Description: The stabilization of solutions of plasmin in accordance with the invention was tested. The activity of plasmin was determined using chromogenic peptide substrate Chromozym TH (Pentapharm, Switzerland) and measurement of absorbance change at 405 nm in a spectrophotometer. Solutions containing 100 μg/ml of plasmin (specific activity 3.2 units/mg, Sigma-Aldrich) in 10 mM HEPES and 0.13 M NaCl, pH 7.4, as well as stabilizers as indicated in Table 2 below were incubated at 37° C., and samples were taken out at various time intervals for activity determination.

trypsin = biological target: T1, trypsin; experiment: Stability of trypsin solutions (TAME substrate, T 70%); assay type: physicochemical; conditions: 100 μg/ml trypsin in 10 mM HEPES, 0.13 M NaCl, pH 7.4, 37° C.
Description: The stabilization of solutions of trypsin in accordance with the invention was tested. The activity of trypsin was determined using tosyl arginine methyl ester (TAME) as substrate and measuring the absorbance change at 247 nm in a spectrophotometer. Solutions containing 100 μg/ml of trypsin (TPCK-treated, Sigma-Aldrich) in 10 mM HEPES and 0.13 M NaCl, pH 7.4, as well as stabilizers as indicated in Table 3 below were incubated at 37° C., and samples were taken out at various time intervals for activity determination.

Molecule	T 70% (plasmin) [h]	T 70% (trypsin) [h]
plasmin: plasmin, specific activity 3.2 units/mg, Sigma-Aldrich, solution without additives (protein, UniProt P00747 20-580; P00747 581-810, looked up, Plasmin) Plasmin heavy chain A: EPLDDYVNTQGASLFSVTKKQLGAGSIEECAAKCEEDEEFTCRAFQYHSKEQQCVIMAENRKSSIIIRMRDVVLFEKKVYLSECKTGNGKNYRGTMSKTKNGITCQKWSSTSPHRPRFSPATHPSEGLEENYCRNPDNDPQGPWCYTTDPEKRYDYCDILECEEECMHCSGENYDGKISKTMSGLECQAWDSQSPHAHGYIPSKFPNKNLKKNYCRNPDRELRPWCFTTDPNKRWELCDIPRCTTPPPSSGPTYQCLKGTGENYRGNVAVTVSGHTCQHWSAQTPHTHNRTPENFPCKNLDENYCRNPDGKRAPWCHTTNSQVRWEYCKIPSCDSSPVSTEQLAPTAPPELTPVVQDCYHGDGQSYRGTSSTTTTGKKCQSWSSMTPHRHQKTPENYPNAGLTMNYCRNPDADKGPWCFTTDPSVRWEYCNLKKCSGTEASVVAPPPVVLLPDVETPSEEDCMFGNGKGYRGKRATTVTGTPCQDWAAQEPHRHSIFTPETNPRAGLEKNYCRNPDGDVGGPWCYTTNPRKLYDYCDVPQCAAPSFDCGKPQVEPKKCPGR Plasmin light chain B: VVGGCVAHPHSWPWQVSLRTRFGMHFCGGTLISPEWVLTAAHCLEKSPRPSSYKVILGAHQEVNLEPHVQEIEVSRLFLEPTRKDIALLKLSSPAVITDKVIPACLPSPNYVVADRTECFITGWGETQGTFGAGLLKEAQLPVIENKVCNRYEFLNGRVQSTELCAGHLAGGTDSCQGDSGGPLVCFEKDKYILQGVTSWGLGCARPNKPGVYVRVSRFVTWIEGVMRNN	3	–
trypsin: trypsin, TPCK-treated, Sigma-Aldrich, solution without additives (protein, UniProt P00760 24-246, looked up, TPCK-treated, trypsin, TPCK-treated, Sigma-Aldrich, solution without additives) Serine protease 1: IVGGYTCGANTVPYQVSLNSGYHFCGGSLINSQWVVSAAHCYKSGIQVRLGEDNINVVEGNEQFISASKSIVHPSYNSNTLNNDIMLIKLKSAASLNSRVASISLPTSCASAGTQCLISGWGNTKSSGTSYPDVLKCLKAPILSDSSCKSAYPGQITSNMFCAGYLEGGKDSCQGDSGGPVVCSGKLQGIVSWGSGCAQKNKPGVYTKVCNYVSWIKQTIASN	–	0.6
